In paper PMC9418145, “Structure of the human NK cell NKR-P1:LLT1 receptor:ligand complex reveals clustering in the immune synapse” (Nature Communications, 2022):
Each block holds one molecule with its values, some of them ahead of it.

How the values were obtained:
[1] = crystal structure comparison of homodimers; details: glycan lost; control: glycosylated NKR-P1 (GlcNAc2Man5), 5MGR
[2] = target: soluble human NKR-P1 ectodomain (C-type lectin-like domain, Gly90-Ser225), glycosylated with uniform GlcNAc2Man5 N-glycans (human) (UniProt Q12918); assay: AUC; sedimentation velocity of equimolar mixtures of glycosylated NKR-P1 with LLT1 or LLT1^SIM at increasing concentrations, 20 °C, SEC buffer; isotherms of weight-average S fitted to A + B ⇔ AB or A + B ⇔ AB + B ⇔ BAB (A the LLT1 dimer, B the NKR-P1 monomer)
[3] = target: AICL (Homo sapiens) (UniProt Q92478); details: cited from earlier work
Sequence of AICL (Homo sapiens) (Q92478 whole entry, the tested form may be a part): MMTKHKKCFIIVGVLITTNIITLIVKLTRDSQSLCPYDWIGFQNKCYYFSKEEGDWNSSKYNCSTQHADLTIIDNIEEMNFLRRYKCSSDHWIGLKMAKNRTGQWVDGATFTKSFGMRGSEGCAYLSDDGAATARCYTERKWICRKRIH

[4] = CD spectroscopy; details: glycan lost; control: wild-type NKR-P1 ectodomain
[5] = analytical ultracentrifugation, sedimentation velocity; details: glycan lost; control: wild-type NKR-P1 ectodomain
[6] = target: T1, soluble human NKR-P1 ectodomain (C-type lectin-like domain, Gly90-Ser225), glycosylated with uniform … (human, UniProt Q12918 90-225, Asn-GlcNAc2Man5 N-glycans; potential N-glycosylation sites Asn116, Asn157, Asn169); assay: AUC; sedimentation velocity of equimolar mixtures of glycosylated NKR-P1 with LLT1 or LLT1^SIM at increasing concentrations, 20 °C, SEC buffer; isotherms of weight-average S fitted to A + B ⇔ AB or A + B ⇔ AB + B ⇔ BAB (A the LLT1 dimer, B the NKR-P1 monomer); details: both partners purified
T1 construct: residues at the N-terminus of the secreted protein, left from the N-terminal secretion leader of pOPINGGTneo; human NKR-P1 (CD161), extracellular CTL domain, Gly90-Ser225; For MST this protein was labelled with Atto 488 NHS-ester at pH 6.5; Monomeric in solution (AUC), a non-covalent helix α1-centered homodimer in the crystal; Ile168 stands in the structure; also called CD161; NKR-P1_glyco; …
T1 sequence: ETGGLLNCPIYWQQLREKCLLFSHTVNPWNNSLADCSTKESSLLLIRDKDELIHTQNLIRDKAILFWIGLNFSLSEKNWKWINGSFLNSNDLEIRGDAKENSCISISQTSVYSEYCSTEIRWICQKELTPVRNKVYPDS

[7] = target: the molecule itself; assay: AUC; sedimentation velocity of the single glycosylated proteins, 48,000 rpm, 20 °C, 10 mM HEPES pH 7.5, 150 mM NaCl, 10 mM NaN3
[8] = target: T1, soluble human NKR-P1 ectodomain (C-type …); assay: not stated; overall Kd of this study as told in the discussion; the experiment behind it (AUC or MST) is not named there; details: both partners purified

Molecule: NKR-P1 (CD161): Endo F1
- structure_or_conformation, other: pairwise Cα RMSD [1]: no change

- fold weaker overall affinity than the wild-type LLT1 [2]: 3 fold
Molecule: LLT1^SIM, N120R, R153E, K169A secondary interaction mode triple mutant of the soluble LLT1 ectodomain (from UniProt Q9UHP7 72-191) (domain or fragment)

Molecule: NKp80 (from UniProt Q9NZS2)
- Kd [3]: 2.3 µM

Molecule: NKR-P1 (CD161): S159A
- stability_or_folding [4]: no change
- oligomerisation [5]: increases

- KD of the primary interaction mode [6]: 50 µM
- Kd [8]: 90 µM
B1: stabilized H176C form of the soluble human LLT1 ectodomain (Gln72-Val191), glycosylated (domain or fragment, UniProt Q9UHP7 72-191, looked up)
chain: QAACPESWIGFQRKCFYFSDDTKNWTSSQRFCDSQDADLAQVESFQELNFLLRYKGPSDHWIGLSREQGQPWKWINGTEWTRQFPILGAGECAYLNDKGASSARCYTERKWICSKSDIHV
modifications: GlcNAc2Man5 glycans
notes: human LLT1, soluble ectodomain Gln72-Val191 with the stabilising mutation H176C; also called wild-type LLT1; soluble LLT1; source: HEK293S GnTI- cells, transiently transfected, secreted, purified (IMAC on Talon, SEC)
- stoichiometry N [7]: 2
